Marks after values point to notes of the source that are not given here.
B1: CK2-α′: recombinant active TAT-conjugated CK2-alpha-prime protein with NES of HIV-1 Rev (protein)
chain: MPGPAAGSRARVYAEVNSLRSREYWDYEAHVPSWGNQDDYQLVRKLGRGKYSEVFEAINITNNERVVVKILKPVKKKKIKREVKILENLRGGTNIIKLIDTVKDPVSKTPALVFEYINNTDFKQLYQILTDFDIRFYMYELLKALDYCHSKGIMHRDVKPHNVMIDHQQKKLRLIDWGLAEFYHPAQEYNVRVASRYFKGPELLVDYQMYDYSLDMWSLGCMLASMIFRREPFFHGQDNYDQLVRIAKVLGTEELYGYLKKYHIDLDPHFNDILGQHSRKRWENFIHSENRHLVSPEALDLLDKLLRYDHQQRLTAKEAMEHPYFYPVVKEQSQPCADNAVLSSGLTAAR
modifications: left off: small tags and cut ends
B2: p27ΔC: TAT-conjugated p27 deficient in binding to CK2-alpha-prime (p27.1-86), serving as negative control (protein)
chain: MSNVRVSNGSPSLERMDARQADHPKPSACRNLFGPVDHEELTRDLEKHCRDMEEASQRKWNFDFQNHKPLEGKYEWQEVEKGSLPE
modifications: left off: small tags and cut ends

Key:
[1] = test system: p27 phosphorylation at S83 and T187 in cardiomyocytes; assay: p27 phosphorylation at S83 and T187 in Ang II-treated cardiomyocytes (Western blot); format: cell-based, rat; conditions: Ang II 4 h; lentiviruses 72 h; DMAT 20 μM pre-incubated 30 min; TAT-conjugated CK2-alpha-prime 2.5 μg/ml 1 h
Description: FIG. 2 is a series of graphs and blots showing Ang II triggers CK2-alpha-prime-dependent phosphorylation of p27 on S83 and T187 in cardiomyocytes. (A) p27 is a substrate of CK2-alpha-prime. […] In vitro kinase assays employing recombinant wt.p27 (1 μg) or phosphorylation site mutants of p27 as substrates were incubated with recombinant CK2-alpha-prime/beta (200 ng). Aliquots of the reaction mixtures were resolved on SDS-PAGE, electrotransferred to nitrocellulose membranes, and the amount of incorporated radioactive [^32P}-label into p27 was quantified with a PhosphorImager and ImageJ software. Individual membranes were probed with anti-CK2-alpha-prime, anti-p27 (input), or phosphorylation site specific antibodies to p27. […] Samples were resolved on SDS-PAGE, transferred to nitrocellulose-membranes, and the amount of incorporated radioactive label into histones was quantified with a PhosphorImager and ImageJ. The input amount of each CK2-alpha-prime and p27 protein used in the kinase reaction mixtures was monitored by immunoblot analysis employing anti-His. […] Biochemically fractionated extracts corresponding to 4×10^5 cells per lane were analyzed by immunoblotting employing antibodies as indicated on the left. […]

WT mice = assay: Chronic Ang II infusion for 14 days with daily TAT.protein injection, WT mice; format: in vivo; conditions: for FS / LVEDD / LVEF / LVESD / PWD: WT, echocardiography at 14 days
Text: FIG. 5 is a series of graphs, blots and cell stainings showing CK2-alpha-prime is important for Ang II action in vivo. […] Transduction of recombinant active CK2-alpha-prime evokes cardiac hypertrophy in the absence of Ang II. (A) Heart-weight corrected for body-weight (left panel) and Masson-stain of myocardial cross sections (right panel). Mean±s.e.m., n=6-8. #P<0.01 vs sham saline. *P<0.01 vs sham saline. Scale bar, 2 mm. (B) Cell size analysis of adult cardiac myocytes isolated from 8-weeks-old mice. One hundred cells from three different mice were analyzed per group. Mean±s.e.m. #P<0.01 vs sham saline. *P<0.01 vs sham saline. **P<0.01 vs Ang II. (c) Determination of ANF/BNP mRNA levels by qRT-PCR. Mean±s.e.m., n=6-8. *P<0.05 vs sham saline. **P<0.05 vs Ang II. #P<0.05 vs sham saline. (D) Visualization of ectopic TAT-conjugated p27deltaPi by indirect immunofluorescence microscopy employing anti-His tag antibodies. Scale bar, 200 μm. (E) Left ventricular extracts (2-3 mg) were subjected to anti-CK2-alpha-prime immunocomplex kinase assays employing histone H1 substrate. Aliquots of kinase reactions were subjected to immunoblotting using antibodies as indicated on the left (top and middle panel). Levels of endogenously expressed or transduced proteins in total left ventricular heart tissue samples (60 μg) were analyzed by immunoblotting (bottom panel). Experiments to (E) were done twice with similar results.
To define whether CK2-alpha-prime -directed p27 turnover plays a role in vivo, the inventors chronically infused Ang II^72 and intraperitoneally injected recombinant TAT-conjugated CK2-alpha-prime and p27 variants in WT and p27^−/− mice (FIG. 9). […] These mice had normal LVEDD and LVESD when compared to Ang II-infused littermates (Table 3). […] CK2-alpha-prime activity and p27 destabilization were similar to their non-transduced Ang II-treated siblings (FIG. 5E).
(§1) Spontaneously beating cardiomyocytes from heart ventricles of neonatal rats were cultured and subjected to treatment with angiotensin II (Ang II). DMAT (2-dimethylamino-4,5,6,7-tetrabromo-1H-benzimidazol), DMSO, lactacystin and LLM were obtained from Calbiochem. Ang II was purchased from Sigma. Animal usage was in accordance with approved institutional animal care guidelines. Age-matched male WI C57BL/6 and p27^−/− mice were used in this study. For results shown in FIGS. 1 to 9: Ang II was chronically infused subcutaneously by osmotic pumps (model 2000, Alzet) at a dose of 1.4 μg/kg per minute for 14 days. TAT.proteins (10 mg/kg) were injected intraperitoneally once daily for 14 days. For results shown in FIGS. 10 to 12: Ang II was chronically infused subcutaneously by osmotic pumps (model 2000, Alzet) at a dose of 0.7 μg/kg per minute for 16 days. TAT.proteins (20 mg/kg) were injected intraperitoneally once daily for 8 days starting at day 8. Thoracic aortic banding (TAB) and pressure gradient measurements were performed as described^39.

p27 KO mice = assay: Chronic Ang II infusion for 14 days with daily TAT.protein injection, p27 KO mice; format: in vivo; conditions: p27 KO, echocardiography at 14 days
Description: (A) Heart-weight corrected for body-weight (left panel) and Masson-stain of myocardial cross sections (right panel). Mean±s.e.m., n=6-8. *P<0.01 vs sham saline. **P<0.01 vs Ang II. Scale bar, 2 mm. (B) Cell size analysis of adult cardiac myocytes isolated from 8-weeks-old mice. One hundred cells from three different mice were analyzed per group. Mean±s.e.m. *P<0.01 vs sham saline. **P<0.01 vs Ang II. (C) Determination of ANF/BNP mRNA levels by qRT-PCR. Mean±s.e.m., n=6-8. *P<0.01 vs sham saline. **P<0.01 vs Ang II. (D) CK2-alpha-prime-dependent kinase activity determined in whole left ventricular tissue samples. One typical result of two independent experiments is shown. (E, F) Ang II action induces apoptosis in p27^−/− mice. (E) Quantification of apoptotic cardiac myocytes (white arrowheads) by in situ TUNEL and GATA4 immunofluorescence histochemistry of left ventricular specimen. Mean±s.e.m., n=4. *P<0.01 vs sham saline. **P<0.05 vs sham saline. #P<0.01. (F) Determination of caspase 3 activity in total left ventricular heart tissue samples. Mean±s.e.m., n=4. *P<0.05 vs sham saline. #P<0.01. (G) Model for CK2-alpha-prime-dependent regulation of cardiac hypertrophy through phosphorylation of p27. Hypertrophic signals stimulate CK2-alpha-prime kinase that phosphorylates p27 at S83 and T187. Phosphorylation of p27 impairs its ability to bind to and inhibit […] activity. Subsequently, p27 is proteasomally degraded allowing hypertrophic growth to proceed.
Next, the inventors examined the effect of transduced proteins on cardiac hypertrophy in p27^−/− mice. Elimination of p27 gene function in these animals completely abrogated the ability of kd.CK2-alpha-prime to block cardiac hypertrophy (FIG. 6A-D). In contrast, hypertrophic responses to Ang II were abolished by p27deltaPi injections. Thus, reconstitution of p27 protein abundance in the myocardium of p27^−/− mice was accompanied by inhibition of Ang II action. Moreover, the inventors observed a marked increase in the number of TUNEL-positive cardiomyocyte nuclei in Ang II-infused p27^−/− mice (FIG. 6E,F) as compared to the WT controls. […] This was in direct contrast to the effect seen by ectopic kd.CK2-alpha-prime consistent with the inventors' previous work showing that CK2 is cardioprotective^73,74.
as §1

[2] = Ang infusion 1.4 μg/kg per minute 14 days, TAT.protein 10 mg/kg i.p. once daily
[3] = saline infusion, TAT.protein 10 mg/kg i.p. once daily 14 days
[4] = saline infusion, TAT.protein 10 mg/kg i.p. once daily 14 days, 8-weeks of age

Molecule	FS (WT mice; [2])	LVEDD (WT mice; [2])	LVEF (WT mice; [2])	LVESD (WT mice; [2])	PWD (WT mice; [2])	LVEDD (WT mice; [3])	LVEF (WT mice; [3])	LVESD (WT mice; [3])	PWD (WT mice; [3])	FS (WT mice; [4])	also measured
B1	55 ± 3.9* %	4.6 ± 0.1* mm	82 ± 2.8* %	2.4 ± 0.1* mm	1.3 ± 0.1* mm	4.5 ± 0.2^# mm	83 ± 3.1^# %	2.4 ± 0.2^# mm	1.3 ± 0.2^# mm	52 ± 2.0^# %	S83/T187 phosphorylation of p27 in cardiomyocytes [1]: rescued the detrimental impact of siCK2-alpha-prime on p27 phosphorylation; cardiac hypertrophy in the absence of Ang II (WT mice; WT mice, saline, TAT.protein 10 mg/kg i.p. once daily): did induce cardiac hypertrophy
B2	54 ± 3.2%	4.5 ± 0.2 mm	81 ± 3.5%	2.3 ± 0.1 mm	1.2 ± 0.2 mm	3.6 ± 0.2 mm	69 ± 2.1%	1.4 ± 0.1 mm	0.7 ± 0.1 mm	41 ± 1.8%	FS (p27 KO mice; [2]): 56 ± 3.9%; LVEDD (p27 KO mice; [2]): 4.6 ± 0.2 mm; LVEF (p27 KO mice; [2]): 82 ± 3.8%; LVESD (p27 KO mice; [2]): 2.3 ± 0.2 mm; PWD (p27 KO mice; [2]): 1.1 ± 0.1 mm; FS (p27 KO mice; [3]): 42 ± 2.4%; LVEDD (p27 KO mice; [3]): 3.7 ± 0.2 mm; LVEF (p27 KO mice; [3]): 73 ± 2.6%; LVESD (p27 KO mice; [3]): 1.3 ± 0.1 mm; PWD (p27 KO mice; [3]): 0.6 ± 0.2 mm; cardiac hypertrophy to Ang II (heart/body weight ratio, myocyte area, ANF/BNP mRNA) (WT mice; Ang II-treated WT mice, TAT.proteins 10 mg/kg i.p. once daily 14 days): No anti-hypertrophic effect
